Molecular target: T1, NPRA (Rattus norvegicus, UniProt P18910)
T1 construct: endogenous in cells; host or cells: primary neonatal rat cardiac fibroblasts, transfected with insertless vector or sNRF^(806-900)
T1 sequence (P18910 29-1057): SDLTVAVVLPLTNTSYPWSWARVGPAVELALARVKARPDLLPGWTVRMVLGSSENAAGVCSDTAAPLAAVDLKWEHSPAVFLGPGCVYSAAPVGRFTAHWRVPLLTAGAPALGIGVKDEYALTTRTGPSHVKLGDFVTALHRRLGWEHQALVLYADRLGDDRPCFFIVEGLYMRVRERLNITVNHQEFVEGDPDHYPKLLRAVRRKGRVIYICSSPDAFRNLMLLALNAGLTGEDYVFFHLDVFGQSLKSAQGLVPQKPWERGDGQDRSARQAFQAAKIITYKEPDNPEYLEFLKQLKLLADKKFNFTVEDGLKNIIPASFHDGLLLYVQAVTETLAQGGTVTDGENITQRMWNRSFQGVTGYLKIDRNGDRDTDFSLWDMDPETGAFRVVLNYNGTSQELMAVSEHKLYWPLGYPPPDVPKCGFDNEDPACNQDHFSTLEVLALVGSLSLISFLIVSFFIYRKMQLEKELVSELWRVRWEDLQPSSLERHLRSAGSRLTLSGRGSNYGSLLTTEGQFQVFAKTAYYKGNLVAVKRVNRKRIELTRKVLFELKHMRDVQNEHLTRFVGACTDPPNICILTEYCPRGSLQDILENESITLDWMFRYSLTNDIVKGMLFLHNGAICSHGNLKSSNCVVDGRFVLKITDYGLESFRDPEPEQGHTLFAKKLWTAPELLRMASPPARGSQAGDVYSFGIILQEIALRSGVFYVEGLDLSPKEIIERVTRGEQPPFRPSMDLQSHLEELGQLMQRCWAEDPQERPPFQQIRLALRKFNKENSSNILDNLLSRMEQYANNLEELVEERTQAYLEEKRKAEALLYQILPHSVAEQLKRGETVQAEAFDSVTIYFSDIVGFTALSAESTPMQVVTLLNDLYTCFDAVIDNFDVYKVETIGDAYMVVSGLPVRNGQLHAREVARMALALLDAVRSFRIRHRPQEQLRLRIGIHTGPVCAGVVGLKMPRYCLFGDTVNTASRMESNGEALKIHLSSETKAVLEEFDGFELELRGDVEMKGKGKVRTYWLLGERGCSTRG
Assay: Total cGMP by enzyme immunoassay in NP-treated CFs
Assay type: cell-based
Details: fragment expressed alone, no ANP; 100 μM IBMX
Description: The ability of sNRF^(806-900) to reduce or inhibit downstream effects by modulating the intrinsic guanylyl cyclase activity of NPRA, was determined by measuring total cGMP levels in NP-treated CFs. CFs were transfected with insertless vector or sNRF^(806-900) as described in Example 7 and treated with ANP (100 nM) for 15 minutes. cGMP concentration was determined by enzyme immunoassay using a commercial kit (Enzyme immunoassay Biotrak EIA System, Amersham Biosciences). In all experiments, cells were treated with 100 μM IBMX with or without ANP.

**Q.** “sNRF^(806-900): intracellular NPRA fragment, residues 806-900, excludes the cyclase-containing domain; shortest fragment observed to associate with PKG” was tested. Which cGMP levels did it give?
**A.** The cGMP levels was “significantly increased cGMP levels”.

Source: patent publication US7943296B2, “Methods of screening using a natriuretic peptide receptor” (Oregon Health & Science University, priority 2005, dated 2011)
